Data on 2 substances can be found in paper PMC9995687.

The assay concerns the target Human STIM1, N-terminally ECFP-tagged, Q13586-1. Description: FRET microscopy (Eapp) in cells. Particulars: read off a plot.

“Human Orai1 wild-type, C-terminally YFP-labelled (from UniProt Q96D31-1) A137Bpa”: the response (+TG (1 μM), +UV, n = 8) worked out at 0.11 Eapp; the response (+TG (1 μM), -UV, n = 8) came out at 0.11 Eapp; the response (-TG, +UV, n = 8) turned out to be 0.01 Eapp; the response (-TG, -UV, n = 8) turned out to be 0.008 Eapp.
“Orai1 A137Bpa, C-terminally YFP-labelled (from UniProt Q96D31-1) L273D”: the response reads like this: (+TG (1 μM), +UV, n = 9, parent: est. 0.11) 0.004 Eapp; (+TG (1 μM), -UV, n = 9, parent: est. 0.11) 0.002 Eapp; (-TG, +UV, n = 9, parent: est. 0.010) 0.003 Eapp; (-TG, -UV, n = 9, parent: est. 0.008) 0.006 Eapp.
